The results in this text go back to patent publication US20240409617A1 (Dana-Farber, published 2024).

This assay addresses Human FcRn, biotinylated (human, UniProt P55899 24-297; P61769 21-119).

B1: Ab2-7 scFv-Fc (Fc fusion)
chain 1: QVTLKESGPTRVKPTQTLTLTCTFSGFSLSTTGVGVGWIRQPPGKALEWLALIYWNDDKRYSPSLKSRLTITKDTSKNQVVLTMTNMDPVDTATYYCARISGSGYFYPFDIWGQGTTVTVSS
chain 2: NFMLTQPHSVSESPGKTVTISCTRSSGSIASNYVQWYQQRPGSSPTTVIYEDNQRPSGVPDRFSGSIDSSSNSASLTISGLKAEDEADYYCQSYDSSSLWVFGGGTKLTVL
On to B1, for which the Kd turned out to be 11.7 nM, the koff stood at 0.00198 s⁻¹ and the kon is 169000 M⁻¹ s⁻¹.

In general, Kd refers to a measure of binding affinity in units of concentration. Low readings indicate tighter binding, high ones weaker binding. As usually defined, the koff is the rate constant with which the complex falls apart. Read a low koff as slow dissociation. For orientation: kon means the rate constant with which the complex forms. High values mean fast association, low ones slow association.
